# Laboratory results as given in US20260070974A1 (NONA BIOSCIENCES SUZHOU, published 2026).
# Positions count from the first letter of the chain named.
# T1: cynomolgus monkey Siglec-15 on CHO-K1/cynomolgus monkey Siglec-15 cells (cynomolgus monkey, UniProt Q6ZMC9 20-328 (human entry))
# T1 chain: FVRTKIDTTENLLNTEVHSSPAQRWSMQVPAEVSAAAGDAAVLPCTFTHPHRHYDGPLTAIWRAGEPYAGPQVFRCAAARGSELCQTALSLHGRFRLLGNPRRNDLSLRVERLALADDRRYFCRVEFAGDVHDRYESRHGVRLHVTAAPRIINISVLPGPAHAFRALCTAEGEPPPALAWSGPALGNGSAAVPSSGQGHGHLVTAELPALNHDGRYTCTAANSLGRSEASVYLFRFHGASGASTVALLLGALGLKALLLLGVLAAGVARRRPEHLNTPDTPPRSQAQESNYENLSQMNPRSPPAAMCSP
# T2: human Siglec-15 on CHO-K1/human Siglec-15 cells (KYinno, Beijing) (human, UniProt Q6ZMC9 20-328)
# T2 sequence: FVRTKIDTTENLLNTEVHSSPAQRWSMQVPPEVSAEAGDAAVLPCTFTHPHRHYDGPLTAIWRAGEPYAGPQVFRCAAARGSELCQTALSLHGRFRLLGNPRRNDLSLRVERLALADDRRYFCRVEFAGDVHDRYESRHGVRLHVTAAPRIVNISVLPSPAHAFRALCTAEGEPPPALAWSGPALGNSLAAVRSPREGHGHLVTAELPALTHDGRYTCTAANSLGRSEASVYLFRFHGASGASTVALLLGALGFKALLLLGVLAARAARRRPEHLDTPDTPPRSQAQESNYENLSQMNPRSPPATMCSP
# T3: human Siglec-15 ECD-his protein (Acrobiosystems, Cat #: SG5-H52H3) (human, UniProt Q6ZMC9 20-263)
# T3 construct: Bought protein; only its extracellular domain stood in the assay; also called human Siglec-15 protein; recombinant human Siglec-15 protein; not shown: his tag
# T3 sequence: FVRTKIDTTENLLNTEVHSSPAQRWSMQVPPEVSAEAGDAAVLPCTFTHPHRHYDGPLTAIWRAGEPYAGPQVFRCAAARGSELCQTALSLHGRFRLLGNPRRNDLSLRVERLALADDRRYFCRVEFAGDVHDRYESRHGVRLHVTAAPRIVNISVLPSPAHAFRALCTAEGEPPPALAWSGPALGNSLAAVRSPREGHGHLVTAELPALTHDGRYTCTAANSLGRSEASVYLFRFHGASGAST
# B1: PR301289-2 (antibody, human IgG1, kappa, V domains shown)
# VH: QVQLVQSGAEVKKPGASVKVSCRASGYTFTSYDINWVRQATGQGLEWMGWMNPHSGDTGYAQNFQGRVTMTWQTSISTAYMELSSLRSEDTAVYYCARRRVGVYYHGMDVWGQGTTVTVSS
# VL: ENVLTQSPGTLSLSPGERATLSCRASQSVSSSYFGWYQQKPGQAPRLLIYGASSRATGIPDRFSGSGSGTDFTLTISRLEPEDFAVYYCQQYGSSPITFGQGTRLEIKR
# notes: PTM variant of PR301289: HFR3 N/Q; CDRH3 YYY/YYH; human IgG1/kappa
# B2: PR301286-5 (antibody, human IgG1, kappa, V domains shown)
# VH: QVQLVESGGGVVQPGKSLRLSCAASGFTFSSYGMHWVRQAPGKGLEWVAVIWIDASNRYYAASVKGRFTISRDNSKNTLYLQMNSLRAEDTAVYYCTRGYGDYAYVMDVWGQGASVTVSS
# VL: DIVMTQSPLSLPVTPGEPASISCRSSQSLLPGSGYNYLDWYLQKPGQSPQLLIYLGSNRASGVPDRFSGSGSGTDFTLKISRVEAEDVGIYYCMQALQSPLTFGGGTKVEIKR
# notes: PTM variant of PR301286: VH(HCDR2) G/A; VL(LCDR1) N/S; human IgG1/kappa
# B3: PR300679 (antibody, human IgG1, kappa, V domains shown)
# VH: QVQLQESGPGLVKPSGTLSLTCAVSGGSISSSNWWSWVRQPPGKGLEWIGEIYHSGSTNYNPSLKSRVTISVDKSKNQFSLKLSSVTAADTAVYYCAREYSSSWLSVMDAWGQGASVTVSS
# VL: not shown
# B4: PR301289-1 (antibody, human IgG1, kappa, V domains shown)
# VH: B1 VH with H106Y
# VL: B1 VL
# notes: PTM variant of PR301289: HFR3 N/Q; human IgG1/kappa
# B5: PR301286-1 (antibody, human IgG1, kappa, V domains shown)
# VH: B2 VH
# VL: B2 VL with S33N
# notes: PTM variant of PR301286: VH(HCDR2) G/A; human IgG1/kappa
# B6: PR301286-7 (antibody, human IgG1, kappa, V domains shown)
# VH: B2 VH
# VL: B2 VL with S33N, G34T
# notes: PTM variant of PR301286: VH(HCDR2) G/A; VL(LCDR1) G/T; human IgG1/kappa
# B7: PR301286-3 (antibody, human IgG1, kappa, V domains shown)
# VH: B2 VH with A55V
# VL: B2 VL with S33N
# notes: PTM variant of PR301286: VH(HCDR2) G/V; human IgG1/kappa
# B8: PR301286-6 (antibody, human IgG1, kappa, V domains shown)
# VH: B2 VH
# VL: B2 VL with S33N, G34A
# notes: PTM variant of PR301286: VH(HCDR2) G/A; VL(LCDR1) G/A; human IgG1/kappa
# Target: T1, cynomolgus monkey Siglec-15 on …
# Test: flow cytometry on CHO-K1/cynomolgus monkey Siglec-15 cells
# Description: cDNAs encoding cynomolgus monkey Siglec-15 (the amino acid sequence of which is set forth in SEQ ID NO: 155) were obtained by gene synthesis and cloned into the expression vector pcDNA3.1, and then the expression vector was transfected into CHO-K1 cells to construct CHO-K1/cynomolgus monkey Siglec-15 cells expressing cynomolgus monkey Siglec-15. CHO-K1/cynomolgus monkey Siglec-15 cells were adjusted to a density of 1×10⁶/mL with PBS, and the cell suspension was added to a 96-well V-bottom plate at 100 µL/well. The 96-well V-bottom plate was centrifuged at 1000 rpm for 5 min and washed once with PBS+2% FBS. The cells were resuspended in 100 μL of antibody diluted in a gradient (5-fold dilution, starting concentration: 500 nM) and incubated at 4° C. for 1 h, and PR300066 and hIgG1 were used as positive control and negative control, respectively. After 1 h, the cells were washed twice with PBS+2% FBS. The cells were incubated with 100 μL of Alexa Fluor 488 goat anti-human IgG (Jackson, Cat #: 109-545-098) at 4° C. for 1 h in the dark and then washed twice with PBS+2% FBS. The cells were then resuspended in 200 μL of PBS+2% FBS. The fluorescence intensity of the cells was analyzed using a BD FACS Canto™ II flow cytometer.
Binder,EC50,Maximum (MFI)
B1,1.34 nM,4420 MFI
B2,5.26 nM,4280 MFI

# Target: T2, human Siglec-15 on CHO-K1/human …
# Test: flow cytometry on CHO-K1/human Siglec-15 cells
# Description: CHO-K1/human Siglec-15 cells (KYinno, Beijing) were adjusted to a density of 1×10⁶/mL with PBS, and the cell suspension was added to a 96-well V-bottom plate at 100 μL/well. The 96-well V-bottom plate was centrifuged at 1000 rpm for 5 min and washed once with PBS+2% FBS. The cells were resuspended in […] of antibody diluted in a gradient (5-fold dilution, starting concentration: 500 nM) and incubated at 4° C. for 1 h, and PR300066 and hIgG1 were used as positive control and negative control, respectively. After 1 h, the cells were washed twice with PBS+2% FBS. The cells were incubated with 100 μL of Alexa Fluor 488 goat anti-human IgG (Jackson, Cat #: 109-545-098) at 4° C. for 1 h in the dark and then washed twice with PBS+2% FBS. The cells were then resuspended in 200 μL of PBS+2% FBS. The fluorescence intensity of the cells was analyzed using a BD FACSCanto™ II flow cytometer.
Binder,EC50,Maximum (MFI)
B3,1.03 nM,25300 MFI
B1,1.26 nM,28800 MFI
B2,1.81 nM,24400 MFI

# Target: T3, human Siglec-15 ECD-his protein …
# Test: BLI (Octet RED96), antibody on AHC sensor, Siglec-15 ECD-his as analyte
# Description: Recombinant Human Siglec-15 Protein Affinity was determined using an Octet RED96 instrument (ForteBio) and an anti-human IgG Fc capture sensor (AHC biosensor, ForteBio, Cat #: 18-5060) according to the detailed procedures and methods provided by the manufacturer. Specifically, candidate antibodies were each diluted to a final concentration of 6 µg/mL and directly immobilized on AHC biosensors for kinetic measurements. The antigenic protein Siglec-15 ECD-his protein (Acrobiosystems, Cat #: SG5-H52H3) was diluted with 10× Kinetics buffer to 3 concentrations of 60 nM, 30 nM, and 15 nM separately and injected as the analyte for 120 s with a dissociation time of 400 s and then subjected to regeneration with 10 mM glycine HCl (pH 1.5) for 15 s. The association rate (kon) and dissociation rate (kdis) were calculated using a simple one-to-one Languir binding model (Octet Red96 data analysis software). The equilibrium dissociation constant (kD) was calculated as the ratio of kdis/kon.
Binder,Kd,koff,kon
B3,0.106 nM,0.000102 s⁻¹,968000 M⁻¹ s⁻¹
B4,0.116 nM,3.89e-05 s⁻¹,337000 M⁻¹ s⁻¹
B1,0.19 nM,5.96e-05 s⁻¹,314000 M⁻¹ s⁻¹
B5,0.0162 nM,3.85e-06 s⁻¹,238000 M⁻¹ s⁻¹
B6,0.361 nM,0.000137 s⁻¹,379000 M⁻¹ s⁻¹
B7,0.195 nM,6.44e-05 s⁻¹,330000 M⁻¹ s⁻¹
B8,0.279 nM,0.000107 s⁻¹,384000 M⁻¹ s⁻¹
B2,0.137 nM,4.93e-05 s⁻¹,360000 M⁻¹ s⁻¹

# Target: T3, human Siglec-15 ECD-his protein …
# Test: ELISA, coated human Siglec-15 ECD-his
# Description: […] human Siglec-15 ECD-his protein (Acrobiosystems, Cat #: SG5-H52H3) dissolved in PBS was added to an ELISA plate at 100 μL/well for coating and the plate was incubated overnight at 4° C. The ELISA plate was then blocked with PBST (PBS+0.05% Tween 20) containing 2% BSA at 200 μL/well and incubated at 37° C. for 1 h. The ELISA plate was washed 4 times with PBST. The anti-Siglec-15 antibody diluted in a gradient (5-fold dilution, starting concentration: 6.67 nM) was added to the ELISA plate at 100 μL/well and the plate was incubated at 37° C. for 1 h. The ELISA plate was washed 4 times with PBST. The goat anti-human IgG (H+L)-HRP (1:5000, Jackson, Cat #: 109-035-088) was added at 100 μL/well and the plate was incubated at 37° C. for 1 h. The ELISA plate was washed 4 times with PBST. The TMB substrate (Biopanda, Cat #: TMB-S-003) was added at 100 μL/well, and the plate was incubated at room temperature for 5 min, and then the stop buffer (Solarbio, Cat #: C1058) was added at 100 μL/well to stop the reaction.
row,Binder,EC50
1,B4,0.02 nM
2,B1,0.029 nM
3,B5,0.019 nM
4,B6,0.025 nM
5,B7,0.019 nM
6,B8,0.029 nM
7,B2,0.02 nM
